No end group written: not given here. MDA = malondialdehyde
B1: multiple antigenic peptide SEQ ID NO: 1 MDA-conjugated (mapped peptide) (peptide)
peptide: ALQYKLEGTTR
modifications: also: multiple antigenic peptide, branching core and copy number not given here, MDA-conjugated, site not given here

Each binder was assayed against scavenger LDL receptor in monocytes (assay: cell-based or functional assay).

First: ALQYK(MDA)LEGTTR (not fully specified) [peptide SEQ ID NO: 1 MDA-conjugated]
Second: B1
The “Mean fluorescence (Ex 520 nm, Em 590 nm) of DiI-labelled oxidised LDL (50 ug) taken up by lipid-starved U937 monocytes with 500 ug peptide as competitor; oxidised LDL alone 3433, Control 1657” value (from here on “Mean fluorescence (Ex 520 nm, Em 590 nm)”) of the first is lower: 2130 fluorescence (unit not printed) for the first, 2610 fluorescence (unit not printed) for the second.

Compared with ALSLSNK(MDA)FVEG [peptide SEQ ID NO: 3 MDA-conjugated], RLTRK(MDA)RGLKLA [peptide SEQ ID NO: 2 MDA-conjugated] is higher in “Mean fluorescence (Ex 520 nm, Em 590 nm)” value: 2000 fluorescence (unit not printed) for the first, 2450 fluorescence (unit not printed) for the second.

Compared with RLTRKRGLKLA [peptide SEQ ID NO: 2], ALSLSNKFVEG [peptide SEQ ID NO: 3] is higher in “Mean fluorescence (Ex 520 nm, Em 590 nm)” value: 1410 fluorescence (unit not printed) for the first, 1760 fluorescence (unit not printed) for the second.
